# Columns and labels:
# [1] = test system: IRDBP-1 expressed from pCR IRDBP-1 in transfected COS 7 cells
# [2] = test system: E. coli-expressed NFκB p50
# [3] = test system: T1, RPRAATF substrate of glycogen synthase kinase 3β
# T1 sequence: RPRAATF
# [4] = test system: Thioredoxin (Trx) alone, expressed in E. coli from a pET32 vector [thioredoxin: P0AA25]
# [5] = test system: Trx-IRDBP-1 fusion protein (His6-tagged thioredoxin fusion of the 1503 bp coding region of the cDNA SEQ ID NO: 44)
# Trx-IRDBP-1 fusion protein (His6-tagged thioredoxin fusion of the 1503 bp coding region of the cDNA SEQ ID NO: 44), sequence (chain, as listed by the source): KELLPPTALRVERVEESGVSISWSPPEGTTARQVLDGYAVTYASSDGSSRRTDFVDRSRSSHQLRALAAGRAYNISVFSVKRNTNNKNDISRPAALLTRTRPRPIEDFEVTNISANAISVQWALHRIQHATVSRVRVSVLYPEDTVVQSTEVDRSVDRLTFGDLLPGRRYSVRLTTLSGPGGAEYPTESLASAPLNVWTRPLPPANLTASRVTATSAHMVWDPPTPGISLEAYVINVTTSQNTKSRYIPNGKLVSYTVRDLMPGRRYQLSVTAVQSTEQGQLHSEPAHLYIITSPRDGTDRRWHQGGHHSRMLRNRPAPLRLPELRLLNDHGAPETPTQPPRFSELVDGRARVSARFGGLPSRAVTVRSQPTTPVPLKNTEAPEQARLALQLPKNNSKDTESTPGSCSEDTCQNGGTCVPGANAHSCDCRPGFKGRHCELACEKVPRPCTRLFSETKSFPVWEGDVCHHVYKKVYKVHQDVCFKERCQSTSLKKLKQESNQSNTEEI
# IRDBP-1 expressed from pCR IRDBP-1 in transfected COS 7 cells, sequence (chain, as listed by the source): as above
# Thioredoxin (Trx) alone, expressed in E. coli from a pET32 vector [thioredoxin: P0AA25], sequence (P0AA25 whole entry, the tested form may be a part): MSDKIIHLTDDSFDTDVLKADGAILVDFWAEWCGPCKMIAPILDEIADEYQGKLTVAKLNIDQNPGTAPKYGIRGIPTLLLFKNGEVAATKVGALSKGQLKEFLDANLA
Substance,IRDBP-1-induced IRE transcription [1],"in vitro phosphorylation with [γ-32P] ATP, SDS-PAGE [2]",in vitro phosphorylation with [γ-32P] ATP [3],"in vitro phosphorylation with [γ-32P] ATP, SDS-PAGE [4]","in vitro phosphorylation with [γ-32P] ATP, SDS-PAGE [5]",IRDBP-1-induced IRE activity (IRE-mediated transcription) [1]
"Erk2 (pUSEamp expression vector, cotransfected)",Erk2 decreased IRDBP-1-induced IRE transcription by 45±4% (lane 5 vs. lane 3),–,–,–,–,–
"Akt (endogenous, COS 7 cells)",–,"Akt and Erk did not phosphorylate the controls of Trx alone, and the p50 subunit of NFκB","Akt phosphorylated the RPRAATF substrate of glycogen synthase kinase 3β, used as a positive control","Akt and Erk did not phosphorylate the controls of Trx alone, and the p50 subunit of NFκB",Akt and Erk Trx-IRDBP-1 were capable of phosphorylating Trx-IRDBP-1,–
"wild-type Akt1 (pUSEamp expression vector, cotransfected)",–,–,–,–,–,"Wild-type Akt1 expression, like Akt myr, stimulated IRDBP-1-induced IRE activity to the same extent as the addition of insulin (lane 7 vs. lane 4)"
"Erk (Erk1/2; endogenous, COS 7 cells)",–,"Akt and Erk did not phosphorylate the controls of Trx alone, and the p50 subunit of NFκB",–,"Akt and Erk did not phosphorylate the controls of Trx alone, and the p50 subunit of NFκB",Akt and Erk Trx-IRDBP-1 were capable of phosphorylating Trx-IRDBP-1,–
